T1: Nop5_(2)–Fib2 complex from Pyrococcus furiosus (P. furiosus, UniProt Q8U4M1 1-402; Q8U4M2 1-227)
T1 construct: Nop5, Pyrococcus furiosus, full-length, UniProtKB Q8U4M1; fibrillarin, Pyrococcus furiosus, full-length, UniProtKB Q8U4M2; Formed beforehand and then mixed with Snu13 and guide RNA (1:2:1); also called Nop5_(2)–Fib2 tetramer; source: E. coli BL21(DE3), each protein purified; mixed 1:1.1, 15 min at 80 °C, complex purified by size-exclusion chromatography; not shown: His6, N-terminal, cleaved; …
T1 sequence (looked up) 1: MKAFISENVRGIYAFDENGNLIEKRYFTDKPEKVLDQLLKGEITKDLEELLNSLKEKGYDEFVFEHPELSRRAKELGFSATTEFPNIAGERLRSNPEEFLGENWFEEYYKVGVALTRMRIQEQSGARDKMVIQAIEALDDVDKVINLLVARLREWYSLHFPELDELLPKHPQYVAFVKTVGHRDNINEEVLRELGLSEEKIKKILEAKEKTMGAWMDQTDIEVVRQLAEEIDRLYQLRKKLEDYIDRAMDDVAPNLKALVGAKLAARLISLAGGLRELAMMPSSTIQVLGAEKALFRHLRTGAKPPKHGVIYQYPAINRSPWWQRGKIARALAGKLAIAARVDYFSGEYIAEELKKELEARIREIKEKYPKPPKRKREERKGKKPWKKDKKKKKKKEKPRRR
T1 sequence (looked up) 2: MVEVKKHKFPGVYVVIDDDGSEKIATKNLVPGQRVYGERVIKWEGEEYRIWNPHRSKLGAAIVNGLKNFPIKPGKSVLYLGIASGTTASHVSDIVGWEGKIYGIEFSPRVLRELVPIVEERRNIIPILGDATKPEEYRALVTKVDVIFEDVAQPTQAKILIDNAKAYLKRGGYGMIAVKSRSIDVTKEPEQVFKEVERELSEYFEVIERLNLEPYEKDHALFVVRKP

B1: Nop5 from Pyrococcus furiosus (natural protein, P. furiosus, UniProt Q8U4M1 1-402, looked up)
chain: T1 sequence (looked up) 1
notes: Nop5, Pyrococcus furiosus, full-length gene amplified from genomic DNA, UniProtKB Q8U4M1; Cloned into pET-M11 with a TEV-cleavable N-terminal His6-Tag; also called Nop5_(2) (homodimer); source: E. coli BL21(DE3), purified (heat step at 80 °C, HisTrap, TEV cleavage, reverse HisTrap); not shown: His6, N-terminal, cleaved
B2: Snu13 from Saccharomyces cerevisiae (natural protein, S. cerevisiae, UniProt P39990 1-126, looked up)
chain: MSAPNPKAFPLADAALTQQILDVVQQAANLRQLKKGANEATKTLNRGISEFIIMAADCEPIEILLHLPLLCEDKNVPYVFVPSRVALGRACGVSRPVIAASITTNDASAIKTQIYAVKDKIETLLI
notes: Snu13, S. cerevisiae, full-length SNU13 gene, codon-optimised synthetic gene, UniProtKB P39990; Cloned into pET-M11 with a TEV-cleavable N-terminal His6-Tag; also called Sc Snu13; source: E. coli BL21 (DE3), purified (HisTrap, QTrap flow-through, TEV cleavage, reverse HisTrap); not shown: His6, N-terminal, cleaved
B3: fibrillarin from Pyrococcus furiosus (enzyme, P. furiosus, UniProt Q8U4M2 1-227, looked up)
chain: T1 sequence (looked up) 2
notes: fibrillarin, Pyrococcus furiosus, full-length gene amplified from genomic DNA, UniProtKB Q8U4M2; Cloned into pET-M11 with a TEV-cleavable N-terminal His6-Tag; source: E. coli BL21(DE3), purified (heat step at 80 °C, HisTrap, TEV cleavage, reverse HisTrap); not shown: His6, N-terminal, cleaved

Columns and labels:
[1] = molecular target: the molecule itself; test: SEC; Nop5 and fibrillarin mixed 1:1.1, 15 min at 80 °C, cooled to room temperature; Superdex S200 Increase 10/300 GL; 20 mM sodium phosphate, 500 mM NaCl, pH 6.6
[2] = molecular target: T1, Nop5_(2)–Fib2 complex from Pyrococcus …; test: SEC-MALS; RNP assembled with archaeal guide RNA sR26, Snu13 and Nop5_(2)–Fib2; Superdex S200 Increase 10/300 GL, miniDawn TREOS, Optilab T-rex; the guide RNA is part of the particle; monomeric and dimeric RNP peaks partially overlapped; conditions: both partners purified
[3] = molecular target: T1, Nop5_(2)–Fib2 complex from Pyrococcus …; test: SEC-MALS; RNP assembled with yeast guide RNA snR51, Snu13 and Nop5_(2)–Fib2; Superdex S200 Increase 10/300 GL, miniDawn TREOS, Optilab T-rex; the guide RNA is part of the particle; conditions: both partners purified
[4] = molecular target: B1; test: SEC; Nop5 and fibrillarin mixed 1:1.1, 15 min at 80 °C, cooled to room temperature; Superdex S200 Increase 10/300 GL; 20 mM sodium phosphate, 500 mM NaCl, pH 6.6; conditions: both partners purified

Binder: B1
binding result [1]: binds

Binder: B2
stoichiometry N [2]: 2 copies per Nop5_(2)–Fib2 tetramer
stoichiometry N [3]: 1 copies per Nop5_(2)–Fib2 tetramer

Binder: B3
binding result [4]: binds

— article PMC8413462, “Eukaryotic Box C/D methylation machinery has two non-symmetric protein assembly sites” (Scientific Reports, 2021)
